Assay results published in US9828589B2, “Acyltransferases and uses thereof in fatty acid production” (priority 2009, dated 2017).
Entries after “also recorded” stand apart in the source; their conditions may differ.

Legend:
[1] = test system: [14C]-18:1-Lysophosphatidlycholine (-LPC) and acyl-CoA; test: Determination of substrate specificity for LPLAT, lysophosphatidylcholine as acyl-acceptor (LPCAT assay); format: biochemical, Saccharomyces cerevisea; conditions: comparing FIG. 7 (10 mg/ml BSA) and FIG. 9 (0 mg/ml BSA)
Experimental: (§1) The specific activity of the enzymes LPLAT_18374 (Pi) and LPCAT_02075 (Pi) using the substrates indicated at the x-axis is gives as the amount (in nmol) of substrate/product consumed/produced in one minute per mg total protein and was determined as described in example 6. The specific activities measured for microsomal extracts of yeast harboring an empty vector (pYES2 ev) is shown as control.
as §1, with “AtLPCAT1-At1g12640, AtLPCAT2-At1g63050, BnLPCAT1” for “LPLAT_18374 (Pi)”, “BnLPCAT2” for “LPCAT_02075 (Pi)”

[2] = test system: yeast mutant lacking LPAAT activity (knockout of the gene YDL052c); test: LPAAT activity assay using yeast extracts (complementation, formation of phosphatidic acid); conditions: complements knockout strain; TLC, FIG. 1
Experimental: Microsomal isolations of these transformants and the wildtype yeast strain BY4742 (lane marked “+”) where incubated with ^14C-labeled oleic acid and lysophosphatidic acid (LPA). Thin layer chromatography was performed to separate lipid classes.
The next day, expression of the acyltransferase polypeptides can be induced by transferring the cells to fresh media containing 2% galactose, for example by inoculating 100 ml of fresh culture to an optical density (measure at 600 nm) of OD600=0.1. Cells are harvested after 24 h incubation at 28° C. by centrifugation at 3000×g for 5 min and resuspended in 1 ml resuspention buffer (25 mM Tris/HCL pH 7.6) and disrupted using acid washed zirconium bead (200 μm average diameter) in a mill (Resch, Germany) by three minutes agitation at 300 rpm. The supernatant is transferred to a fresh tube and centrifuged at 3000×g for 5 min. The obtained supernatant is the crude extract. Protein content is measured according to Bradford (Bradford, M. M. (1976), Anal. Biochem. Bd. 72, pp. 248-254) with bovine serum albumin as standard. Assay mixtures contain 50 μg of protein, 10 μl of 10 mM [^14C]-glycerole-3-phosphate (2000 dpm/nmol), 10 μl of 1 mM 18:1-CoA in assay buffer (25 mM Tris/HCL pH 7.6, 0.5 mg/ml BSA) to give a total volume of 100 μl. Samples are incubated for 10 min at 30° C. The assays are terminated by extraction of the lipids into chloroform according to Blight and Dyer (Bligh, E. G. and Dyer, W. J. (1959), Can. J. Biochem. Physiol. 37, pp. 911-917). Lipids are separated on thin layer chromatography (TLC) silica 60 plates (Merck) using chloroform/methanol/acetic acid/water (90:15:10:3), and autoradiographic pictures are taken using an instant imager (Packard).

[3] = test system: [14C]-18:1-LPA and acyl-CoA; test: Determination of substrate specificity for LPAAT (yeast microsomal fraction); format: biochemical, Saccharomyces cerevisea; conditions: comparing FIG. 5 (10 mg/ml BSA) and FIG. 6 (0 mg/ml BSA)
Experimental: as §1, with “enzyme LPAAT_13842” for “enzymes LPLAT_18374 (Pi) and LPCAT_02075”, “5.” for “6.”, “(pYES2.1” for “(pYES2”
as §1, with “BnLPAAT2” for “LPLAT_18374 (Pi)”, “AtLPAAT2-At3g57650” for “LPCAT_02075 (Pi)”, “5.” for “6.”

B1: LPLAT_18374 (Pi): acyltransferase from Phythophtora infestance, 558 amino acids, SEQ-ID 8, encoded by SEQ-ID 7 (protein)
chain: MSTTALLQASTSPPPSREPEYAALEQLEPPLSHAIDMGVKVSPSESAAIAGGVYVTASSSCGASTIKHNPFTYTTPVDTYEKAKMTILCLLGVPFIRFVLLLCVGILLVIVSHLALIGYKPLDAHSGARPPLPRWRRIVGSPVPYLLRSLMLIVGYYWVPVKYPPNFNRHAMPRVIVSNHLTFFDGLYIFTLLSPSIAMKTDVANLPLISRIVQMIQPILIDRGTPEGRRRAMNDITSHVADPSKPPLLVFPEGTTSNQTVLCKFKVGSFVSGVPCQPVVLRYPYKHFDLSWPPGVSGLYLALRVLCQVYNRLEVEILPAYYPSERERKDPQLYAINVREVMAKALGVPTTNHAFEDVAMLMRVGDYATKHVVPLTDVGEVISLTALKRGDVDRLVGYFRRHDLDKDGHLSMQELRALFPNDDPVIVDQLFDLVDLDDSGLIDFRELCLALRALNPQNINEGDDALAKFAFRLYDLDNNGVIDASELEQLLRFQRNFYGVSEASVAAALRQAQAENTTGITYNRFEQLVLQNPEVLWYVRDKLEVLRGSMRESSLEIP
modifications: Phythophtora infestance
selectivity towards the length and the desaturation state of the substrate fatty acid [1]: not as selective as AtLPAAT1 or AtLPCAT2 or BnLPCAT1 or BnLPCAT2
LPAAT activity (formation of phosphatidic acid, PA) [2]: having LPAAT activity; also recorded: have LPAAT activity

B2: LPAAT_13842 (Pi): acyltransferase from Phythophtora infestance, 424 amino acids, SEQ-ID 12, encoded by SEQ-ID 11 (protein)
chain: MSFATPAQVLQDVRFEERFAEIESRLPATLALAKEGSLAKRNQTKRKLYHDSELIRIELEERLNELGIESQWVTAPEMKEANEKLDAVRKQLKLDVLPASSSPLEKIYMVVRMLTMVLVLVGWLSCVTVLIPLKWLNPVLKKMGVKKNYLPMDIVSWGTAFMVCVTACTDMKAEGVENLLNLKDSVVCMFSHSSNLDGFIVNGSSPIAFKFAAKKSIFLVPFLGWSSRWGFDFVAIDRSHRKSALKSLKELAVSVNEHGNSVCISPEGTRSKDGLLQEFKKGPFYLREDTKKNVVPSIVFGAYELWPPGRLFSIPGHTLVRYLPEYKSDPNLNRNQNRLALRRIYLKAFTEDVPDYIGTRVSTNFILKNMFYHYLAWAITFKVTSWALTVISLVLYWLNITYGTFMLFSLVMMVAGEALMFFTC
modifications: Phythophtora infestance
LPAAT activity (formation of phosphatidic acid, PA) [2]: having LPAAT activity; also recorded: have LPAAT activity
selectivity towards the length and the desaturation state of the substrate fatty acid [3]: not as selective as AtLPAAT2 and BnLPAAT2
